Experimental data as given in patent US20210246166A1 (Bayer, published 2021).
Bridge positions count the residues as written; N and C are the ends. Square brackets hold non-standard residues; d marks the D form. Ends that are not written are not given here. Pro(cis-4-CF3) = O=C(O)[C@@H]1C[C@H](C(F)(F)F)CN1; Oic = O=C(O)[C@@H]1C[C@@H]2CCCC[C@@H]2N1; NMeI = CC[C@H](C)[C@H](NC)C(=O)O; tBuAla = CC(C)(C)C[C@H](N)C(=O)O; Pen = CC(C)(S)[C@H](N)C(=O)O; 4Amb = NCc1ccc(C(=O)O)cc1; NMeC = CN[C@@H](CS)C(=O)O; NMeA = CN[C@@H](C)C(=O)O; GABA = NCCCC(=O)O; Sar = CNCC(=O)O

T1: Recombinant human MASP1 enzyme (fragment corresponding to amino acids 297-699, C-terminal His Tag) (human, UniProt P48740 297-699)
T1 sequence: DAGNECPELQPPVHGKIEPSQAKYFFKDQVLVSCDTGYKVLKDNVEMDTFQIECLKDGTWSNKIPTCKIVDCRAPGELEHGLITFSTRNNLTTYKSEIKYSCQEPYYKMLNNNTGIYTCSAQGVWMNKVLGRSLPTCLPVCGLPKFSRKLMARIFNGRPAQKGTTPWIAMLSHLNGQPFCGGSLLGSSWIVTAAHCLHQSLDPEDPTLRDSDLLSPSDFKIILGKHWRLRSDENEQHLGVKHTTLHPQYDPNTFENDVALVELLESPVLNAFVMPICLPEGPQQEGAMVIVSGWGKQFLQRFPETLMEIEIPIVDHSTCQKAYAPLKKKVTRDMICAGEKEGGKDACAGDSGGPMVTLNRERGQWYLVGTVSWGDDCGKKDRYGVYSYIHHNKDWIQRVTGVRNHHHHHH

B1: aIC+SRSLP-(Oic)-I-(Pen)+I-NH2 (peptide)
peptide: [dA]ICSRSLP[Oic]I[Pen]I-NH2
modifications: disulfide 3-11; N-terminus assumed
SMILES: CC[C@H](C)[C@H](NC(=O)[C@H]1NC(=O)[C@H]([C@@H](C)CC)NC(=O)[C@@H]2C[C@@H]3CCCC[C@@H]3N2C(=O)[C@@H]2CCCN2C(=O)[C@H](CC(C)C)NC(=O)[C@H](CO)NC(=O)[C@H](CCCNC(=N)N)NC(=O)[C@H](CO)NC(=O)[C@@H](NC(=O)[C@@H](NC(=O)[C@@H](C)N)[C@@H](C)CC)CSSC1(C)C)C(N)=O
B2: (2-(Morpholine)acetyl)-IC+SRS-((tBu)A)-PPI-(Pen)+IPD-NH2 (peptide)
peptide: [2‑(Morpholine)acetyl]ICSRS[tBuAla]PPI[Pen]IPD-NH2
modifications: disulfide 3-11
B3: (Gamma-Abu)-IC+SRS-((tBu)A)-PPI-((N-Me)C)+IPD-NH2 (peptide)
peptide: [GABA]ICSRS[tBuAla]PPI[NMeC]IPD-NH2
modifications: disulfide 3-11; N-terminus assumed
SMILES: CC[C@H](C)[C@H](NC(=O)CCCN)C(=O)N[C@H]1CSSC[C@@H](C(=O)N[C@H](C(=O)N2CCC[C@H]2C(=O)N[C@@H](CC(=O)O)C(N)=O)[C@@H](C)CC)N(C)C(=O)[C@H]([C@@H](C)CC)NC(=O)[C@@H]2CCCN2C(=O)[C@@H]2CCCN2C(=O)[C@H](CC(C)(C)C)NC(=O)[C@H](CO)NC(=O)[C@H](CCCNC(=N)N)NC(=O)[C@H](CO)NC1=O
B4: AIC+SRS-((tBu)A)-P-(Oic)-I-((N-Me)C)+IPD-OH (HCl salt) (peptide)
peptide: AICSRS[tBuAla]P[Oic]I[NMeC]IPD-OH
modifications: disulfide 3-11; also: HCl salt
B5: ((N-Me)A)-IC+SRSLP-(Oic)-I-(Pen)+IPD-OH (peptide)
peptide: [NMeA]ICSRSLP[Oic]I[Pen]IPD-OH
modifications: disulfide 3-11; N-terminus assumed
SMILES: CC[C@H](C)[C@H](NC(=O)[C@H](C)NC)C(=O)N[C@H]1CSSC(C)(C)[C@@H](C(=O)N[C@H](C(=O)N2CCC[C@H]2C(=O)N[C@@H](CC(=O)O)C(=O)O)[C@@H](C)CC)NC(=O)[C@H]([C@@H](C)CC)NC(=O)[C@@H]2C[C@@H]3CCCC[C@@H]3N2C(=O)[C@@H]2CCCN2C(=O)[C@H](CC(C)C)NC(=O)[C@H](CO)NC(=O)[C@H](CCCNC(=N)N)NC(=O)[C@H](CO)NC1=O
B6: AIC+SRSLP-(Oic)-I-((N-Me)C)+I-NH2 (peptide)
peptide: AICSRSLP[Oic]I[NMeC]I-NH2
modifications: disulfide 3-11; N-terminus assumed
SMILES: CC[C@H](C)[C@H](NC(=O)[C@@H]1CSSC[C@H](NC(=O)[C@@H](NC(=O)[C@H](C)N)[C@@H](C)CC)C(=O)N[C@@H](CO)C(=O)N[C@@H](CCCNC(=N)N)C(=O)N[C@@H](CO)C(=O)N[C@@H](CC(C)C)C(=O)N2CCC[C@H]2C(=O)N2[C@@H](C[C@@H]3CCCC[C@@H]32)C(=O)N[C@@H]([C@@H](C)CC)C(=O)N1C)C(N)=O
B7: ((N-Me)G)-IC+SRS-((tBu)A)-PPI-(Pen)+IP-NH2 (peptide)
peptide: [Sar]ICSRS[tBuAla]PPI[Pen]IP-NH2
modifications: disulfide 3-11; N-terminus assumed
SMILES: CC[C@H](C)[C@H](NC(=O)CNC)C(=O)N[C@H]1CSSC(C)(C)[C@@H](C(=O)N[C@H](C(=O)N2CCC[C@H]2C(N)=O)[C@@H](C)CC)NC(=O)[C@H]([C@@H](C)CC)NC(=O)[C@@H]2CCCN2C(=O)[C@@H]2CCCN2C(=O)[C@H](CC(C)(C)C)NC(=O)[C@H](CO)NC(=O)[C@H](CCCNC(=N)N)NC(=O)[C@H](CO)NC1=O
B8: ((N-Me)G)-IC+SRSLPPIC+IPD-NH2 (HCl salt) (peptide)
peptide: [Sar]ICSRSLPPICIPD-NH2
modifications: disulfide 3-11; also: HCl salt
B9: G-((N-Me)I)-C+SRSLPPIC+IPD-NH2 (peptide)
peptide: G[NMeI]CSRSLPPICIPD-NH2
modifications: disulfide 3-11; N-terminus assumed
SMILES: CC[C@H](C)[C@@H]1NC(=O)[C@@H]2CCCN2C(=O)[C@@H]2CCCN2C(=O)[C@H](CC(C)C)NC(=O)[C@H](CO)NC(=O)[C@H](CCCNC(=N)N)NC(=O)[C@H](CO)NC(=O)[C@@H](NC(=O)[C@H]([C@@H](C)CC)N(C)C(=O)CN)CSSC[C@@H](C(=O)N[C@H](C(=O)N2CCC[C@H]2C(=O)N[C@@H](CC(=O)O)C(N)=O)[C@@H](C)CC)NC1=O
B10: ((N-Me)G)-IC+SRSLPPIC+IPD-NH2 (peptide)
peptide: [Sar]ICSRSLPPICIPD-NH2
modifications: disulfide 3-11; N-terminus assumed
SMILES: CC[C@H](C)[C@H](NC(=O)CNC)C(=O)N[C@H]1CSSC[C@@H](C(=O)N[C@H](C(=O)N2CCC[C@H]2C(=O)N[C@@H](CC(=O)O)C(N)=O)[C@@H](C)CC)NC(=O)[C@H]([C@@H](C)CC)NC(=O)[C@@H]2CCCN2C(=O)[C@@H]2CCCN2C(=O)[C@H](CC(C)C)NC(=O)[C@H](CO)NC(=O)[C@H](CCCNC(=N)N)NC(=O)[C@H](CO)NC1=O
B11: AIC+SRS-((tBu)A)-P-((4-CF3)P)-IC+IPD-NH2 (peptide)
peptide: AICSRS[tBuAla]P[Pro(cis-4-CF3)]ICIPD-NH2
modifications: disulfide 3-11; N-terminus assumed
SMILES: CC[C@H](C)[C@H](NC(=O)[C@H](C)N)C(=O)N[C@H]1CSSC[C@@H](C(=O)N[C@H](C(=O)N2CCC[C@H]2C(=O)N[C@@H](CC(=O)O)C(N)=O)[C@@H](C)CC)NC(=O)[C@H]([C@@H](C)CC)NC(=O)[C@@H]2C[C@H](C(F)(F)F)CN2C(=O)[C@@H]2CCCN2C(=O)[C@H](CC(C)(C)C)NC(=O)[C@H](CO)NC(=O)[C@H](CCCNC(=N)N)NC(=O)[C@H](CO)NC1=O
B12: Ac-IC+SRS-((tBu)A)-PPI-(Pen)+IPD-NH2 (peptide)
peptide: Ac-ICSRS[tBuAla]PPI[Pen]IPD-NH2
modifications: disulfide 2-10
SMILES: CC[C@H](C)[C@H](NC(C)=O)C(=O)N[C@H]1CSSC(C)(C)[C@@H](C(=O)N[C@H](C(=O)N2CCC[C@H]2C(=O)N[C@@H](CC(=O)O)C(N)=O)[C@@H](C)CC)NC(=O)[C@H]([C@@H](C)CC)NC(=O)[C@@H]2CCCN2C(=O)[C@@H]2CCCN2C(=O)[C@H](CC(C)(C)C)NC(=O)[C@H](CO)NC(=O)[C@H](CCCNC(=N)N)NC(=O)[C@H](CO)NC1=O
B13: (4-(Aminomethyl)benzoic acid)-IC+SRS-((tBu)A)-PPI-(Pen)+IPD-NH2 (peptide)
peptide: [4Amb]ICSRS[tBuAla]PPI[Pen]IPD-NH2
modifications: disulfide 3-11; N-terminus assumed
SMILES: CC[C@H](C)[C@H](NC(=O)c1ccc(CN)cc1)C(=O)N[C@H]1CSSC(C)(C)[C@@H](C(=O)N[C@H](C(=O)N2CCC[C@H]2C(=O)N[C@@H](CC(=O)O)C(N)=O)[C@@H](C)CC)NC(=O)[C@H]([C@@H](C)CC)NC(=O)[C@@H]2CCCN2C(=O)[C@@H]2CCCN2C(=O)[C@H](CC(C)(C)C)NC(=O)[C@H](CO)NC(=O)[C@H](CCCNC(=N)N)NC(=O)[C@H](CO)NC1=O
B14: ((N-Me)A)-IC+SRSLP-(Oic)-I-(Pen)+IPE-OH (peptide)
peptide: [NMeA]ICSRSLP[Oic]I[Pen]IPE-OH
modifications: disulfide 3-11; N-terminus assumed
SMILES: CC[C@H](C)[C@H](NC(=O)[C@H](C)NC)C(=O)N[C@H]1CSSC(C)(C)[C@@H](C(=O)N[C@H](C(=O)N2CCC[C@H]2C(=O)N[C@@H](CCC(=O)O)C(=O)O)[C@@H](C)CC)NC(=O)[C@H]([C@@H](C)CC)NC(=O)[C@@H]2C[C@@H]3CCCC[C@@H]3N2C(=O)[C@@H]2CCCN2C(=O)[C@H](CC(C)C)NC(=O)[C@H](CO)NC(=O)[C@H](CCCNC(=N)N)NC(=O)[C@H](CO)NC1=O
B15: ((N-Me)G)-IC+SRS-((tBu)A)-PPI-(Pen)+IPP-NH2 (peptide)
peptide: [Sar]ICSRS[tBuAla]PPI[Pen]IPP-NH2
modifications: disulfide 3-11; N-terminus assumed
SMILES: CC[C@H](C)[C@H](NC(=O)CNC)C(=O)N[C@H]1CSSC(C)(C)[C@@H](C(=O)N[C@H](C(=O)N2CCC[C@H]2C(=O)N2CCC[C@H]2C(N)=O)[C@@H](C)CC)NC(=O)[C@H]([C@@H](C)CC)NC(=O)[C@@H]2CCCN2C(=O)[C@@H]2CCCN2C(=O)[C@H](CC(C)(C)C)NC(=O)[C@H](CO)NC(=O)[C@H](CCCNC(=N)N)NC(=O)[C@H](CO)NC1=O
B16: HIC+SRS-((tBu)A)-PPI-((N-Me)C)+I-NH2 (peptide)
peptide: HICSRS[tBuAla]PPI[NMeC]I-NH2
modifications: disulfide 3-11; N-terminus assumed
SMILES: CC[C@H](C)[C@H](NC(=O)[C@@H]1CSSC[C@H](NC(=O)[C@@H](NC(=O)[C@@H](N)Cc2c[nH]cn2)[C@@H](C)CC)C(=O)N[C@@H](CO)C(=O)N[C@@H](CCCNC(=N)N)C(=O)N[C@@H](CO)C(=O)N[C@@H](CC(C)(C)C)C(=O)N2CCC[C@H]2C(=O)N2CCC[C@H]2C(=O)N[C@@H]([C@@H](C)CC)C(=O)N1C)C(N)=O

What was measured:
[1] = target: T1, Recombinant human MASP1 enzyme …; assay: cell-based or functional assay
[2] = target: Recombinant human MASP2 enzyme (fragment corresponding to amino acids 297-686, C-terminal His Tag) (human, UniProt O00187 297-686); assay: cell-based or functional assay
Chain of Recombinant human MASP2 enzyme (fragment corresponding to amino acids 297-686, C-terminal His Tag) (O00187 other isoform, or with tags, fused parts or gaps limits assumed): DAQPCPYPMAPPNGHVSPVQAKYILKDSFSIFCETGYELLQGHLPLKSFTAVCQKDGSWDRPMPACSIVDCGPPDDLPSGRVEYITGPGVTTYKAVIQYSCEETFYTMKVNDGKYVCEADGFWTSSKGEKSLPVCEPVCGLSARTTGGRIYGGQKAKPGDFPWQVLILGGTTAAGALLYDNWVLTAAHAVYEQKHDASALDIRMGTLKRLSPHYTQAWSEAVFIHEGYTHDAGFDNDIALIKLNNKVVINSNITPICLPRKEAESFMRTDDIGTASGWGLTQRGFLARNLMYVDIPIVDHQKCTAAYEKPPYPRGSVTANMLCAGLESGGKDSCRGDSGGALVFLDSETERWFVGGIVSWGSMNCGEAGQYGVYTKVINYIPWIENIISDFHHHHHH

| Binder | human MASP1 IC50 [1] [nM] | human MASP2 IC50 [2] [nM] |
| --- | --- | --- |
| B1 | 3.9 | 100 |
| B2 | 15 | – |
| B3 | – | 210 |
| B4 | 3.8 | 210 |
| B5 | 3.9 | 160 |
| B6 | 3.9 | 170 |
| B7 | 3.8 | 44 |
| B8 | 7.1 | – |
| B9 | 11 | – |
| B10 | 13 | – |
| B11 | 3.9 | 930 |
| B12 | 16 | – |
| B13 | – | 8.1 |
| B14 | 3.9 | 170 |
| B15 | 3.8 | 63 |
| B16 | 3.8 | 140 |
